Assay [1] has as its target T1, human IL-25 (human, UniProt Q9H293 33-177).
T1 construct: ELISA used bought R&D systems #1258-IL-025/CF; Treated as one molecule; also called IL-17E; human IL-17E
T1 sequence (looked up): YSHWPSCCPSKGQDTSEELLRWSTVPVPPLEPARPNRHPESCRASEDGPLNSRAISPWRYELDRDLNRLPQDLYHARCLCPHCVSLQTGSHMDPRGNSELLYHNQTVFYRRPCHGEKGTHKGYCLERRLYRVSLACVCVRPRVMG
Briefly: SPR, Biacore T200; antibody captured by anti-human Fc, IL-25 as analyte. How it is done:
Anti-human Fc gamma specific antibody (Jackson Immuno Research, Lot no. 124448, Code. 109-008-098) was immobilized onto the Biacore T200 sensor chip using amine coupling method. Four antibodies secreted to the culture medium plus the parental antibody were injected and captured by anti-human Fc antibody via Fc (capture phase) individually. After equilibration, IL-25 was injected for 300 seconds (association phase) followed by the injection of running buffer for 1200 s (dissociation phase). Responses of reference flow cell (flow cell 1) were subtracted from those of humanized antibodies flow cells during each cycle. The surface was regenerated before the injection of another humanized antibody. The process was repeated until all antibodies are analyzed. The off-rates of humanized antibodies were obtained from fitting the experimental data locally to 1:1 interaction model using the Biacore T200 evaluation software. The antibodies were ranked by their dissociation rate constants (off-rates, Kd). The binders that interact with IL-25 with similar affinity to parental antibody were selected (Table 1).
A general note: Surface plasmon resonance follows binding to a sensor surface in real time, without labels.

Assay [2] concerns the target T2, cynomolgus IL-25 (cynomolgus, UniProt G7P9V9 33-176).
T2 construct: In-house production
T2 sequence: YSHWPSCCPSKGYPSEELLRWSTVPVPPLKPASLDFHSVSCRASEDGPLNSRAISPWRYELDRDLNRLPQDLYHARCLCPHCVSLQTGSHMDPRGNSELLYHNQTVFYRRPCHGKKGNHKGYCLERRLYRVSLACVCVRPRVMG
Briefly: ELISA, plate coated with cynomolgus IL-25 (cynoIL25-his), OD450, Example 7 [panel cynoIL25-his]. For orientation: In an ELISA, binding on a coated surface is turned into a signal by an enzyme label.

The target of assay [3] is T3, mouse IL-25 (mouse, UniProt Q8VHH8 17-169, limits assumed).
T3 construct: In-house production
T3 sequence (looked up): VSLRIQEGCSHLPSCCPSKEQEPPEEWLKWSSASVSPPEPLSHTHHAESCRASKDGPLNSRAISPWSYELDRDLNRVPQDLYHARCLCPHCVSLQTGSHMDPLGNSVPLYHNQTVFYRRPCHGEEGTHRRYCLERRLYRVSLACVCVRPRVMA
Briefly: ELISA, plate coated with mouse IL-25, OD450, Example 7; unit from the axis lg(nM) [panel Mouse IL-25].

For assay [4], the target named is T4, human IL-17D (human, UniProt Q8TAD2 18-202, limits assumed).
T4 sequence (looked up): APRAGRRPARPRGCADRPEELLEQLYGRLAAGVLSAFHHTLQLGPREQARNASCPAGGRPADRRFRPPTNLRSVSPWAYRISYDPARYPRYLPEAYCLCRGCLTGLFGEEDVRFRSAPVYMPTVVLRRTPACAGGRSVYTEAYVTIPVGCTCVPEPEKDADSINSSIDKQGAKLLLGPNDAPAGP
Briefly: ELISA, plate coated with 2 µg/ml cytokine. How it is done: (§1) MaxiSorp 96-well plates (NUNC #449824, www.thermofisher.com) were coated with 2 μg/ml human IL-17A (Cell Signaling #89285F, www.cellsignal.com), human IL-17F (Cell Signaling #8906LC, www.cellsignal.com), human IL-17B (Peprotech #200-28, www.peprotech.com), human IL-17C (R&D systems #1234-IL-025/CF, www.rndsystems.com), human IL-17D ((Peprotech #200-27, www.peprotech.com), human IL-17E (R&D systems #1258-IL-025/CF, www.rndsystems.com) in 1×PBS (50 μl/well) respectively. Plates were incubated at 4° C. overnight. Coating solution was removed and plates were washed once with 200 μl/well PBST (1×PBS with 0.05% tween-20). Then 200 μl/well blocking buffer (1×PBS with 0.05% tween-20, 3% BSA) was added and incubated at room temperature for 1 hour. Blocking buffer was removed and plates were washed three times with 200 μl/well PBST (1×PBS with 0.05% tween-20). The anti-IL-25 antibodies (produced in Example 2), were diluted to 10, 3.33, 1.11, 0.37, 0.123, 0.041, 0.0137, 0.0046, 0.0015, 0.00031, 0.000102, 0.000034 μg/ml by 1×PBS and added to the plates (50 μl/well). Plates were incubated at room temperature for 2 hours. Antibodies in the wells were removed and plates were washed three times with 200 μl/well PBST (1×PBS with 0.05% tween-20) each time. Goat anti-human IgG(H&L)-HRP secondary antibody (Jackson Immuno Research #109-035-088, www.jacksonimmuno.com) was diluted 1:5000 in 1×PBS and added to each well (50 μl/well). Plates were incubated at room temperature for 1 hour. Secondary antibody was removed and plates were washed seven times with 200 μl/well PBST (1×PBS with 0.05% tween-20) each time. 50 μl/well TMB (eBioscience #85-00-4201-56, www.ebioscience.com) was added and plates were incubated at room temperature for several minutes. Then 50 μl/well 2N H₂SO₄ was added to stop the reaction. Plates were read at 450 nm.

Assay [5] deals with T5, human IL-17F (human, UniProt Q96PD4 31-163).
T5 sequence (looked up): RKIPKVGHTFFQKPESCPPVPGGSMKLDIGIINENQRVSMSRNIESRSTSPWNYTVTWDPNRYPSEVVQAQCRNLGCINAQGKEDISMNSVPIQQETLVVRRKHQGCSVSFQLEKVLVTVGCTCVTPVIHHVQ
Put plainly: ELISA, plate coated with 2 µg/ml cytokine. How it is done: as §1

For assay [6], the target named is T6, human IL-17B (human, UniProt Q9UHF5 21-180).
T6 sequence (looked up): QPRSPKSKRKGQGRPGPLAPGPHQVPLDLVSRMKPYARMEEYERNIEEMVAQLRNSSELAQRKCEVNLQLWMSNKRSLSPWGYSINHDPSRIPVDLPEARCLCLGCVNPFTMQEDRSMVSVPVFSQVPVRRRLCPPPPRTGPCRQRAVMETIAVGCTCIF
Briefly: ELISA, plate coated with 2 µg/ml cytokine. The method, then: as §1

The target in assay [7] is T7, human IL-17C (human, UniProt Q9P0M4 19-197).
T7 sequence (looked up): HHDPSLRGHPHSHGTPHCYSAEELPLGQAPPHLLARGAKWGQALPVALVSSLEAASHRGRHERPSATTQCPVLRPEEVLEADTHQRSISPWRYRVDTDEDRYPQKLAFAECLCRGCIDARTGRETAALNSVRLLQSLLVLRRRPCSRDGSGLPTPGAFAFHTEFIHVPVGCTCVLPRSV
Put plainly: ELISA, plate coated with 2 µg/ml cytokine. The method, then: as §1

As a reminder, the Kd is the constant that tells how readily two partners part at equilibrium. Usually koff stands for the rate constant with which the complex falls apart. A lower koff goes with slow dissociation. The kon is the second-order rate constant of association. The low end stands for slower complex formation, the high end for faster complex formation. The term EC50 denotes the concentration needed to bring the measured effect to its halfway point. Low readings indicate an effect from little substance, high ones a need for much substance.

B1: murine anti-IL-25 monoclonal antibody 18H3 (antibody, V domains shown)
VH: QVTLKESGPGILQPSQTLSLTCSFSGFSLSTSGMGLGWIRQPSGKGLEWLAHIWWDDVKHYKPALKSRLTISKDISSSQVFLTIASVDTADTATYYCARMGQLHYYGYDYAMDYWGQGTSVTVSS
VL: QIVLTQSPAIMSASPGEKVTISCSASSSVSYMYWYQQKPGSSPKPWIYRTSNLASGVPARFSGSGSGTSYSLTISSMEAEDAATYYCQLYHSYPPTWTFGGGTKLEIK
notes: also called parental antibody; parental murine mAb
On to B1, for which, in assay [1], the Kd came out at 0.34 nM, the koff was determined as 0.000267 s⁻¹ and the kon amounted to 785000 M⁻¹ s⁻¹. Moreover, in assay [2], the EC50 stood at 2.35 nM. The molecule further gave an EC50 in assay [3] of 0.329 nM.

B2: VH1-1 + VL2-1 (humanized anti-IL-25 antibody formed by VH1-1 and VL2-1) (antibody, V domains shown)
VH: QVTLKESGPTLVKPTQTLTLTCTFSGFSLSTSGMGLGWIRQPPGKALEWLAHIWWDDVKHYKPALKSRLTITKDTSKNQVVLTMTNVDPVDTATYYCARMGQLHYYGYDYAMDYWGQGTLVTVSS
VL: DIQLTQSPSFLSASVGDRVTITCSASSSVSYMYWYQQKPGKAPKPLIYRTSNLASGVPSRFSGSGSGTEYTLTISSMQPEDFATYYCQLYHSYPPTWTFGQGTKLEIK
For B2, the binding result in assay [4], in assay [5], in assay [6] and in assay [7] was “no binding (tested: 10 µg/ml)” throughout. In assay [1], binding was put at a Kd of 0.271 nM. Besides, the koff in assay [1] came to 0.000259 s⁻¹. In assay [1], the kon is 957000 M⁻¹ s⁻¹. Further, the EC50 was determined as 1.51 nM in assay [2] and 0.153 nM in assay [3].

B3: VH2-1 + VL1-2 (humanized anti-IL-25 antibody formed by VH2-1 and VL1-2) (antibody, V domains shown)
VH: QVTLRESGPALLKPTQTLTLTCTFSGFSLSTSGMGLGWIRQPPGKALEWLAHIWWDDVKHYKPALKSRLTISKDTSKNQVVLTITNVDPVDTATYYCARMGQLHYYGYDYAMDYWGQGTLVTVSS
VL: EIVLTQSPATLSASPGERVTISCSASSSVSYMYWYQQKPGQAPRPLIYRTSNLASGVPARFSGSGSGTDYTLTISSMEPEDFATYYCQLYHSYPPTWTFGQGTKLEIK
Take B3: the binding result in assay [4], in assay [5], in assay [6] and in assay [7] was “no binding (tested: 10 µg/ml)” throughout. Besides, in assay [1], binding was put at a Kd of 0.275 nM. Besides, in assay [1], the koff came out at 0.000327 s⁻¹. In assay [1], this molecule yielded a kon of 1.19e+06 M⁻¹ s⁻¹. For the same molecule, the concentration giving a half-maximal response (EC50) was found to be 1.12 nM in assay [2] and 0.231 nM in assay [3].

B4: VH1-1 + VL1-2 (humanized anti-IL-25 antibody formed by VH1-1 and VL1-2) (antibody, V domains shown)
VH: QVTLKESGPTLVKPTQTLTLTCTFSGFSLSTSGMGLGWIRQPPGKALEWLAHIWWDDVKHYKPALKSRLTITKDTSKNQVVLTMTNVDPVDTATYYCARMGQLHYYGYDYAMDYWGQGTLVTVSS
VL: EIVLTQSPATLSASPGERVTISCSASSSVSYMYWYQQKPGQAPRPLIYRTSNLASGVPARFSGSGSGTDYTLTISSMEPEDFATYYCQLYHSYPPTWTFGQGTKLEIK
notes: Captured by anti-human Fc gamma antibody in SPR
For B4, the binding result in assay [4], in assay [5], in assay [6] and in assay [7] was “no binding (tested: 10 µg/ml)” throughout. For the same molecule, the Kd in assay [1] worked out at 0.267 nM. In assay [1], this molecule showed a koff of 0.000284 s⁻¹. The molecule also returned a kon in assay [1] of 1.06e+06 M⁻¹ s⁻¹. Besides, in assay [3], a half-maximal response (EC50) required 0.242 nM.

B5: VH2-1 + VL2-1 (humanized anti-IL-25 antibody formed by VH2-1 and VL2-1) (antibody, V domains shown)
VH: QVTLRESGPALLKPTQTLTLTCTFSGFSLSTSGMGLGWIRQPPGKALEWLAHIWWDDVKHYKPALKSRLTISKDTSKNQVVLTITNVDPVDTATYYCARMGQLHYYGYDYAMDYWGQGTLVTVSS
VL: DIQLTQSPSFLSASVGDRVTITCSASSSVSYMYWYQQKPGKAPKPLIYRTSNLASGVPSRFSGSGSGTEYTLTISSMQPEDFATYYCQLYHSYPPTWTFGQGTKLEIK
For B5, the binding result in assay [4], in assay [5], in assay [6] and in assay [7] was “no binding (tested: 10 µg/ml)” in each case. Also, binding in assay [1] was characterised by a dissociation constant (Kd) of 0.302 nM. The molecule further had a koff in assay [1] of 0.000353 s⁻¹. Further, the kon in assay [1] was 1.17e+06 M⁻¹ s⁻¹. The molecule also had an EC50 in assay [3] of 0.244 nM.

(Values after patent publication US20210332123A1 (SUZHOU KANOVA BIOPHARMACEUTICAL, published 2021).)
